Assay results reported in PMC4335501.

Target: HAdV-52 short fiber knob (human adenovirus type 52 (HAdV-52))
Experiment: SPR; 52SFK captured by its His-tag on a Ni-NTA chip (700 RU); fetuin or asialofetuin type II as analytes, two-fold series 125 to 1 μM; 25°C; HBS-EP+; Biacore T100

B1: sialylated fetuin glycoprotein (natural protein)
chain: IPLDPVAGYKEPACDDPDTEQAALAAVDYINKHLPRGYKHTLNQIDSVKVWPRRPTGEVYDIEIDTLETTCHVLDPTPLANCSVRQQTQHAVEGDCDIHVLKQDGQFSVLFTKCDSSPDSAEDVRKLCPDCPLLAPLNDSRVVHAVEVALATFNAESNGSYLQLVEISRAQFVPLPVSVSVEFAVAATDCIAKEVVDPTKCNLLAEKQYGFCKGSVIQKALGGEDVRVTCTLFQTQPVIPQPQPDGAEAEAPSAVPDAAGPTPSAAGPPVASVVVGPSVVAVPLPLHRAHYDLRHTFSGVASVESSSGEAFHVGKTPIVGQPSIPGGPVRLCPGRIRYFKI
modifications: sialylated glycans
- Kd: 37 µM
